Reference: article PMC4949581

What was measured:
purified protein [1] = substrate: O=[N+]([O-])c1ccc(O[C@@H]2O[C@H](CO)[C@@H](O)[C@H](O)[C@H]2O)cc1; experiment: purified protein; details: 60.0 °C
purified protein [2] = substrate: OC[C@H]1O[C@@H](O[C@H]2[C@H](O)[C@@H](CO)OC(O)[C@@H]2O)[C@H](O)[C@@H](O)[C@@H]1O; experiment: purified protein; details: 60.0 °C

B1: TxGH116 β-glucosidase (Thermoanaerobacterium xylanolyticum LX-11) (protein)
chain: LTGCSEKININEDKISHKIDIPDSAWTIGIGEKFKNAGHPNVKYPMIDDSYVQGAPLGGFGAGTIGRTYNGGFSRWHLEIGKNKYTTVYANQFSVFQKVEGNKDGVAQVLYAGEPENGYLSSWKWDYPKESGMYYALYPNSWYTYTNKDLPVQLAVKQFSPIIPYNYKETSYPVAVFKWTAYNPTNKNVDVSIMFTWQNMIGFFGKQVNVNSGNFNKIIKDKSKDSEIVAAVMGNISNDNEEWNGEYSIGVKKVPGVDISYKAKFVTTGDGSDLWHEFSKNGILDNKDDETPTKQDGIGSAIAVNFKLQPGQTIEVPFALSWDLPIMKFGGGDKWYKMYTKYFGKNGKNSFAILKEALNNYQKWEKMIDDWQKPILSNKSKPDWYKTALFNELYYLADGGTAWENGKVGEKDKRTNNMFGLLECFDYNYYETLDVRFYGSFPLVMLWPDIEKQVMRQFADTINVQDSSEFKVGSNGAMAVKKVQGMIPHDLGSSYALPWIKINAYDWQNPNIWKDLNSKYVLLVYRDYVLTGKTDKEFLKYTWKSVKTALDKLKEMDKDNDGIPDNEGIPDQTYDTWSMKGTSAYCGSLWLAALKAAQEIGKVLKDNEAYIKYNEWYKIAQQNFEKELWNGEYYNFDTESDHKDSIMADQLAGQWYADILRLGDILPKDHVQKALKKIYEFNVMKFENGKMGAVNGMRPDGIVDESDIQAQEVWTGVTYALASFMKYRGMTEEAYNTAYGVYKMTYDKSGKGYWFRTPEAWTKDGNYRASMYMRPLSIWSMEVNYNEV
Km (purified protein [1]): 180 ± 8 µM
kcat (purified protein [1]): 49 ± 0.8 s⁻¹
kcat/Km (purified protein [1]): 272000 M⁻¹ s⁻¹
Km (purified protein [2]): 270 ± 18 µM
kcat (purified protein [2]): 41.4 ± 0.7 s⁻¹
kcat/Km (purified protein [2]): 153000 M⁻¹ s⁻¹
